Results on one substance are retold here after paper PMC12463560.

In this test the target is PEDV-S1 protein fused with an Fc region (PEDV-S1-Fc protein) (porcine epidemic diarrhea virus | human). In words: SDS-PAGE under reducing and non-reducing conditions; purified proteins loaded with (+) or without (-) beta-mercaptoethanol, Coomassie stained; shows disulfide-linked dimers only.

Regarding “PEDV-S1 protein fused with an Fc region (PEDV-S1-Fc protein) (Fc fusion)”, the stoichiometry N stood at 2.
